# B1: K36A/K38A/K233A/K234A: E. coli YggS triple lysine variant (protein)
# chain: MNDIAHNLAQVRDKISAAATRCGRSPEEITLLAVSATAPASAIAEAIDAGQRQFGENYVQEGVDKIRHFQELGVTGLEWHFIGPLQSNKSRLVAEHFDWCHTIDRLRIATRLNDQRPAELPPLNVLIQINISDENSKSGIQLAELDELAAAVAELPRLRLRGLMAIPAPESEYVRQFEVARQMAVAFAGLKTRYPHIDTLSLGMSDDMEAAIAAGSTMVRIGTAIFGARDYSAA
# modifications: left off: His-tag, C-terminal, state not stated
# notes: E. coli YggS triple lysine variant
# B2: K36A/K38A/K137A/K233A/K234A: E. coli YggS quadruple lysine variant (protein)
# chain: MNDIAHNLAQVRDKISAAATRCGRSPEEITLLAVSATAPASAIAEAIDAGQRQFGENYVQEGVDKIRHFQELGVTGLEWHFIGPLQSNKSRLVAEHFDWCHTIDRLRIATRLNDQRPAELPPLNVLIQINISDENSASGIQLAELDELAAAVAELPRLRLRGLMAIPAPESEYVRQFEVARQMAVAFAGLKTRYPHIDTLSLGMSDDMEAAIAAGSTMVRIGTAIFGARDYSAA
# modifications: left off: His-tag, C-terminal, state not stated
# notes: E. coli YggS quadruple lysine variant
# B3: K36A/K137A/K233A/K234A: E. coli YggS triple lysine variant (protein)
# chain: MNDIAHNLAQVRDKISAAATRCGRSPEEITLLAVSATKPASAIAEAIDAGQRQFGENYVQEGVDKIRHFQELGVTGLEWHFIGPLQSNKSRLVAEHFDWCHTIDRLRIATRLNDQRPAELPPLNVLIQINISDENSASGIQLAELDELAAAVAELPRLRLRGLMAIPAPESEYVRQFEVARQMAVAFAGLKTRYPHIDTLSLGMSDDMEAAIAAGSTMVRIGTAIFGARDYSAA
# modifications: left off: His-tag, C-terminal, state not stated
# notes: as for B1
# Columns and labels:
# apo‐YggS = target: T1, apo‐YggS (Escherichia coli, UniProt P67080); assay: biochemical; type: binding; conditions: WT apo-YggS
# T1 construct: made in house; host or cells: E. coli HMS174(DE3)
# Protocol: Equilibrium binding analyses were carried out by measuring the decrease of protein intrinsic fluorescence observed upon the addition of increasing PLP concentrations to a fixed concentration of apo‐YggS (Figure 1b).
# Dissociation constants were calculated from saturation curves obtained measuring the protein fluorescence emission intensity as a function of increasing PLP concentration. […] Fluorescence emission spectra were recorded from 310 to 450 nm upon excitation at 280 nm. Excitation and emission slits were set at 3 and 5 nm, respectively.
# [1] = Differential scanning fluorimetry (DSF), apparent Tm of YggS forms; type: physicochemical; conditions: for T m (°C) Apo +2 μM PLP: 2 μM protein + 2 μM (equimolar) PLP; for T m (°C) Apo + 300 μM PLP: 2 μM protein + 300 μM PLP; for T m (°C) Apo: apo-form, 2 μM protein, no PLP
# Protocol: Differential scanning fluorimetry (DSF) assays were performed on a Real Time PCR Instrument (CFX Connect Real Time PCR system, Bio‐Rad, Hercules, CA). In a typical experiment, 2 μM WT and variant apo‐YggS forms in 50 mM NaHEPES, pH 7.5, 50 mM NaCl, and Sypro Orange (5x, Thermo Scientific) were mixed with various ligands (total volume of 25 μl) in a 96‐well PCR plate. Fluorescence was measured from 25°C to 95°C in 0.4°C/30 s steps (excitation 450–490 nm; detection 560–580 nm). All samples were run in triplicate. Denaturation profiles were analyzed as described in Nardella et al.[40]
# [2] = Covalent (Schiff base) PLP binding judged by absorption spectra; conditions: ~416–420 nm band
# Protocol: Our strategy was to start from the K36A variant and gradually add further variations so as to obtain all possible combinations of double, triple, and quadruple variants. Variations of the last two residues at the C‐terminal end of the protein, K233 and K234, were always introduced together and are therefore considered as a single K233A/K234A variation.
# All spectroscopic measurements were carried out at 20°C in 20 mM NaHEPES pH 7.5. UV–visible spectra were recorded with a Hewlett‐Packard 8453 diode‐array spectrophotometer. Far‐UV (190–250 nm) and Near‐UV–visible (250–500 nm) CD spectra were measured with a Jasco 710 spectropolarimeter equipped with a DP 520 processor using 0.1‐cm (far‐UV) or 1‐cm path length quartz cuvettes and results were expressed as ellipticity [Θ]. Absorption spectra of WT and variant forms were deconvoluted into their component bands using Metzler's band‐shape analysis method.[22]
# T1 sequence (P67080 whole entry): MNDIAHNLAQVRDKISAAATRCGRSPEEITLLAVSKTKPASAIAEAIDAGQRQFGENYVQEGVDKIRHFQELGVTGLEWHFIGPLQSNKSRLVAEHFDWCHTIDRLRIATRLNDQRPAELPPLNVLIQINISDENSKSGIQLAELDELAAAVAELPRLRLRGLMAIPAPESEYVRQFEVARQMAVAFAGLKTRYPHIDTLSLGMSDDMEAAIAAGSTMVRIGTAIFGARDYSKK
Molecule,change in fluorescence emission attributable to binding (apo‐YggS),T m (°C) Apo +2 μM PLP [1],T m (°C) Apo + 300 μM PLP [1],T m (°C) Apo [1],capability to bind PLP covalently as a Schiff base [2]
Cc1ncc(COP(=O)(O)O)c(C)c1O [4dPNP],could only be detected with PL and PNP,–,–,–,–
"Cc1ncc(CO)c(CO)c1O [PN, pyridoxine]",could only be detected with PL and PNP,–,–,–,–
B1,–,68.9 ± 0.1 °C,69.6 ± 0.1 °C,68.8 ± 0.1 °C,lost the capability to bind PLP covalently
B2,–,68.8 ± 0.1 °C,69.1 ± 0.3 °C,68.7 ± 0.1 °C,lost the capability to bind PLP covalently
B3,–,64.7 ± 0.1 °C,66.0 ± 0.1 °C,64.6 ± 0.1 °C,–

# Source: publication PMC9601805, “Characterization of the Escherichia coli pyridoxal 5′‐phosphate homeostasis protein (YggS): Role of lysine residues in PLP binding and protein stability” (Protein Science : A Publication of the Protein Society, 2022)
